# Experimental data published in patent publication US20210253725A1 (BIONTECH, published 2021).
# Positions count from the first letter of the chain named. Numbers in names are those of the source.
# B1: P018.S.14.A.D06 (antibody, V domains shown)
# VH: QSVEESGGRLVTPGTPLTLTCTVSGFSLSTYAMIWVRQAPGKGLEWIGVVYDNGYISHATWVKGRFTISKTSTTVGLEITSPTTEDTATYFCARSADGSWSTYFNLWGQGTLVTVSS
# VL: DIVMTQTPASVEAAVGGTVTIKCQASESISNYLAWYQQKPGQPPKLLIYKASTLASGVSSRFKGSGSGTEFTLTISDLESADAATYYCQTNYCCSSSDNGFAFGGGTEVVVK
# notes: V regions on human Ig constant parts; also called AB137_10
# B2: P018.S.14.A.A04 (antibody, V domains shown)
# VH: QSLEESGGRLVTPGTPLTLTCTVSGFSLNDYWMSWVRQAPGKGLEWIGYIDVGGSLYYASWAKGRFTISRTSTTVDLKMTSLTTEDTATYFCARGGLTYGFDLWGPGTLVTVSS
# VL: DIVMTQTPASVSEPVGGTVTINCQASEDISSYLAWYQQKPGQRPKRLIYGASDLASGVPSRFSASGSGTEYALTISDLESADAATYYCHYYATISGLGVAFGGGTEVVVK
# notes: V regions on human Ig constant parts; also called AB137_9
# B3: P018.S.13.A.A06 (antibody, V domains shown)
# VH: QSVEESGGRLVTPGTPLTLTCTASGFTISDFHVTWVRQAPGKGLEWIGTIITSASTTAYATWARGRFTISKSSTTVNLKIVSPTTEDTATYFCARSTYTDTSGYYFDFWGQGTLVTVSS
# VL: AQVLTQTASPVSAAVGGTVIINCQSSQSIYNGNRLSWYQQKPGQPPKLLIYSASTLASGVSSRFKGSGSGTQFTLAISDVQSDDAATYYCLGSYDCDSADCFAFGGGTEVVVE
# notes: V regions on human Ig constant parts; also called AB137_5
# B4: P018.S.14.A.H01 (antibody, V domains shown)
# VH: QSVEESGGRLVTPGTPLTLTCTVSGFSLSDYYMTWVRQAPGKGLEYIGIMSGSGSTYYASWAKGRFTISKTSSTTLELKITSPTTEDTAIYFCARDGDYAGWGYATGAFDPWGPGTLVTVSS
# VL: AAVLTQTPSPVSAAVGGTVTISCQASQSVVGNSLLSWFQKKPGQPPKLLIYSASSLASGVPSRFKGSGSGTQFTLTISDLESDDAATYYCTGRYNSDTDTFVFGGGTEVVVK
# notes: V regions on human Ig constant parts; also called AB137_12
# B5: P018.S.13.A.C02 (antibody, V domains shown)
# VH: QSVEESGGRLVTPGTPLTLTCTVSGFSLSSYAMSWVRQAPGKGLEWIGIISTSGITYYASWAKGRFTISKTSTMVDLKITSPTTEDTATYFCARLNGFDDYVRYFDFWGLGTLVTVSS
# VL: AIELTQTPSSVSAAVGGTVTINCQASESIASNLAWYQQKPGQPPKLLIYAASYLASGVPSRFKGSGSGTEYTLTISGVQSADAATYYCQSAFYVSSSDNAFGGGTEVVVK
# notes: V regions on human Ig constant parts; also called AB137_6
# B6: P018.S.08.A.F03 (antibody, V domains shown)
# VH: QSVEESGGRLVTPGTPLTLTCTASGFTISSYHMIWVRQAPGEGLEWIGDIYGGTATTDYASWAKGRFTISKTSTTVDLKMTSLTTEDTATYFCARARYSGGSYANYVFNLWGQGTLVTVSS
# VL: DIVMTQTPASVEAAVGGTVTIKCQASQSISSYLAWYQQKPGQPPKLLIYRTSTLESGVPSRFKGSGSGTEFTLTISDLESADAATYYCQGYDWSSSNRYDNTFGGGTEVVVK
# notes: V regions on human Ig constant parts; also called AB137_3
# B7: P018.S.14.A.G03 (antibody, V domains shown)
# VH: QSLEESGGRLVTPGTPLTLTCTVSGIDLSSYHMCWVRQAPGKGLEYIGYIAYGGNTYYANWAKGRFTISKTSTTVDLRITSPTTEDTATYFCARGYSEDSYWGLWGPGTLVTVSS
# VL: AYDMTQTPASVEAAVGGTVTIKCQASQNIENYLAWYQQKPGQPPKLLIYDTSKLTSGVPSRFSGSGSGTDFTLTISGVQSDDAATYYCQQDYGIIFVDNIFGGGTEVVVK
# notes: V regions on human Ig constant parts; also called AB137_11
# B8: P018.S.13.A.A05 (antibody, V domains shown)
# VH: QSLEESGGRLVTPGTPLTLTCTASGFSLSRYDMSWVRQAPGKGLEYIGVISSSGGTNYANWAKGRFTISKTSTTVDLKITSPTTEDTATYFCAREGDYWDFNLWGPGTLVTVSS
# VL: AQVLTQTPSSVSAAVGGTVTINCQASQSISNLLAWYQQKPGQPPKLLIYGASTLASGVPSRFSGSGSGTEFTLTISDLESDDAATYYCAGGFPGLDTVAAFGGGTEAVVT
# notes: V regions on human Ig constant parts; also called AB137_4
# B9: P018.S.13.A.G04 (antibody, V domains shown)
# VH: B8 VH with R30S, V49Y, G55N, N57Y, N60S, G64S
# VL: B8 VL with P43R, K45R, G50R, S63K, D81E, V98G, A100T
# notes: V regions on human Ig constant parts; also called AB137_8
# B10: P018.S.08.A.A04 (antibody, V domains shown)
# VH: QSVEESGGRLVTPGTPLTLTCTVSGFSLSSYAVSWVRQAPGKGLEWIGVIWNNGATHYATWAKGRFTISKASTTVDLKVTSPTTEDTATYFCARSANDAWSTYSDLWGQGTLVTVSS
# VL: DIVMTQTPASVEAAVGGTVTIKCQASQTITNYLSWYQQKPGQPPKLLIYKASTLTSGVSSRFKGSGSGTEFTLTISDLESDDAATYYCQNYYYGSSSGYGFVFGGGTEVVVK
# notes: V regions on human Ig constant parts; also called AB137_1
# B11: P018.S.13.A.G03 (antibody, V domains shown)
# VH: QSLEESGGRLVTPGTPLTLTCTASGFSLSSYDVSWVRQAPGKGLEYIGFIGSDGSAHYATWVKGRFTISKTSTTVDLKITSPTTEDTATYFCARDWNDYWAHDLWGPGTLVTVSS
# VL: AQVLTQTTSPVSAAVGGTVTINCQASQIVTSKSALSWYQQKPGQPPRLLIYKASTLASGVPSRFSGSGSGTQFTLTISDLESDDAATYYCAGGYYNSGDLNPFGGGTEVVVK
# notes: V regions on human Ig constant parts; also called AB137_7
# B12: P018.S.08.A.E03 (antibody, V domains shown)
# VH: QSVEESGGRLVTPGTPLTLTCTVSGFSLTYYAVTWVRQPPGKGLEWIGVIYDNGATAFATWAKGRFTMSKNSTTVALKVTSPTTEDTATYFCARSANNAWSTYSNLWGQGTLVTVSS
# VL: DIVMTQTPSSVSAAVGGTVTINCQASEDISSYLSWYQQKLGQPPKLLIYKASTLESGVPSRFKGSGSGTEYTLTISDLESDDAATYYCQSYYSGSISGYGFVFGGGTGVVVK
# notes: V regions on human Ig constant parts; also called AB137_2
# B13: P018.S.05.A.G03 (antibody, V domains shown)
# VH: QEQLVESGGGLVQPEGSLTVTCTASGFSFSNSYWMCWVRQAPGKGLEWIACIYLGSAGTTHHATWAKGRFTISKTTSTTVTLQMTSLTAADTATYFCARAGHDYWGAYHTLWGPGTLVTVSS
# VL: DVVMTQTPASVSEPVGGSVTIKCQASQNIDNTLAWYQQKAGQPPKLLIYHASTLASGVPSRFRGSGSGTDFTLTISDLESADAATYYCQCPYYGSTYVYSFGGGTEVVVK
# B14: P018.S.14.A.D06 (antibody, V domains shown)
# VH: B1 VH
# VL: B1 VL
# B15: P018.S.13.A.G04 (antibody, V domains shown)
# VH: B8 VH with R30S, V49Y, G55N, N57Y, N60S, G64S
# VL: B8 VL with P43R, K45R, G50R, S63K, D81E, V98G, A100T
# Biological target: T1, CD137 expressed on the cell surface of HT1080_4-1BB cells (human, UniProt Q07011 24-255)
# Experiment: cell-based or functional assay
# Wherever Functional assay Cross-linked by F(ab′)2 fragment IL-8 is given: test concentration or dose not given here.
# Wherever Functional assay IL-8 is given: test concentration or dose not given here.
# T1 sequence (Q07011 24-255): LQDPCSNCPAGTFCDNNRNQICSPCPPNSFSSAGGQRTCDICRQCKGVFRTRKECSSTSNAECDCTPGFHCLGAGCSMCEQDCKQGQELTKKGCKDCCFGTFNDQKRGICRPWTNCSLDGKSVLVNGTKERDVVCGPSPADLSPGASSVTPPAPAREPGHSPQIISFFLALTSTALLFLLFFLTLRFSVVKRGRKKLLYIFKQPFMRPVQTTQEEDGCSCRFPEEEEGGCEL
Binder,Functional assay Cross-linked by F(ab′)2 fragment IL-8 [abs. corr.],Functional assay IL-8 [abs. corr.]
B1,1.52,-0.011
B2,0.972,0.785
B3,1.71,-0.153
B4,2.19,2.02
B5,1.4,0.113
B6,1.36,-0.346
B7,1.14,0.222
B8,2.57,0.559
B9,1.8,-0.179
B10,1.55,0.368
B11,0.789,-0.164
B12,2.02,-0.304

# Biological target: CD134 expressed on the cell surface of HT1080_OX40 cells (human) (UniProt P43489)
# Experiment: cell-based or functional assay
# Sequence of CD134 expressed on the cell surface of HT1080_OX40 cells (human) (P43489 29-277): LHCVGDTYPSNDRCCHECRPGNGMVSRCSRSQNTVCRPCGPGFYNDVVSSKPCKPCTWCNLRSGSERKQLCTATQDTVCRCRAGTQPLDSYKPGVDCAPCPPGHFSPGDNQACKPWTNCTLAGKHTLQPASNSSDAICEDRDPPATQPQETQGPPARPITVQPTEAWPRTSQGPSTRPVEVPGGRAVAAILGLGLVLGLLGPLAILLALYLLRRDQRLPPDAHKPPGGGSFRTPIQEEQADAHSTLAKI
Binder,"EC 50 (IL-8 release, cross-linked) [µg/mL]",Functional assay Cross-linked by F(ab′)2 fragment IL-8 [abs. corr.],Functional assay IL-8 [abs. corr.]
B13,0.966,2.39,0.032

# Biological target: T1, CD137 expressed on the cell surface of …
# Experiment: HT1080_4-1BB cells, imaging; further: test concentration or dose not given here
row,Binder,Cellular binding assay [RFU]
1,B1,1
2,B2,81
3,B3,38
4,B4,6
5,B5,8
6,B6,7
7,B7,19
8,B8,0
9,B9,1
10,B10,46
11,B11,13
12,B12,9

# Biological target: CD134 expressed on the cell surface of HT1080_OX40 cells (human) (UniProt P43489)
# Experiment: HT1080_OX40 cells, imaging
row,Binder,Cellular binding assay [RFU]
1,B13,40

# Biological target: T2, CD137 protein (His-tagged, Sino Biological Inc. 10041-H08H) (human, UniProt Q07011 24-186)
# T2 construct: bought protein coated on ELISA plates; also called 4-1BB; TNFRSF9; not shown: His tag
# Experiment: ELISA, coated His-tagged CD137; further: test concentration or dose not given here
row,Binder,ELISA [abs. corr.]
1,B1,2.9
2,B2,3.44
3,B3,3.39
4,B4,2.97
5,B5,2.55
6,B6,2.33
7,B7,2.07
8,B8,0.687
9,B9,0.577
10,B10,3.42
11,B11,1.73
12,B12,3.05

# Biological target: human 4-1BB (CD137) (human, UniProt Q07011 24-255)
# Experiment: cell-based or functional assay
# Sequence of human 4-1BB (CD137) (Q07011 24-255): as the sequence (Q07011 24-255) above
row,Binder,"EC 50 [ng/mL] of agonistic function (IL-8 release from CD137-overexpressing HT1080 cells, antibody cross-linked by F(ab')2 goat anti-human IgG) [ng/mL]"
1,B14,10200
2,B15,255000
